What all share (assay): ELISA
Background: An ELISA detects its analyte on a solid surface through an enzyme-linked reagent.

The target of experiment [1] is Apolipoprotein E3 (LipoE3) (Homo sapiens, UniProt P02649).
In experiment [2] the target is Apolipoprotein E2 (LipoE2) (Homo sapiens, UniProt P02649).
In experiment [3] the target is Apolipoprotein E4 (LipoE4) (Homo sapiens, UniProt P02649).

For three molecules, Kd results are on record in PMC4122225 (2014).

Chain of Apolipoprotein E2 (LipoE2) (P02649 19-317): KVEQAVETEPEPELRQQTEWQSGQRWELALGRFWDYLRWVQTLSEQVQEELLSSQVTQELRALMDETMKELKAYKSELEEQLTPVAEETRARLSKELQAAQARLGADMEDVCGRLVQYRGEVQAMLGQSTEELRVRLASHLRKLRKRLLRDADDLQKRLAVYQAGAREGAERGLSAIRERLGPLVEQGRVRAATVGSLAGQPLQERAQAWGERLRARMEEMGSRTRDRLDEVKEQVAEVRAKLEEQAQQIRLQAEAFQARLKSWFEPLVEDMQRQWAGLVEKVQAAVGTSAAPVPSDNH
Chain of Apolipoprotein E4 (LipoE4) (P02649 19-317): as above
Chain of Apolipoprotein E3 (LipoE3) (P02649 19-317): as above

B1: Haptoglobin (phenotype 1-1) (protein)
chain 1: VDSGNDVTDIADDGCPKPPEIAHGYVEHSVRYQCKNYYKLRTEGDGVYTLNDKKQWINKAVGDKLPECEADDGCPKPPEIAHGYVEHSVRYQCKNYYKLRTEGDGVYTLNNEKQWINKAVGDKLPECEAVCGKPKNPANPVQ
chain 2: ILGGHLDAKGSFPWQAKMVSHHNLTTGATLINEQWLLTTAKNLFLNHSENATAKDIAPTLTLYVGKKQLVEIEKVVLHPNYSQVDIGLIKLKQKVSVNERVMPICLPSKDYAEVGRVGYVSGWGRNANFKFTDHLKYVMLPVADQDQCIRHYEGSTVPEKKTPKSPVGVQPILNEHTFCAGMSKYQEDTCYGDAGSAFAVHDLEEDTWYATGILSFDKSCAVAEYGVYVKVTSIQDWVQKTIAEN
modifications: ApoE3 isoform, lecithin liposome-associated
One may read the Kd as the constant that tells how readily two partners part at equilibrium. In turn, B1 returned a Kd in experiment [1] of 0.0596 µM.

B2: Haptoglobin (phenotype 1-1) (protein)
chain 1: VDSGNDVTDIADDGCPKPPEIAHGYVEHSVRYQCKNYYKLRTEGDGVYTLNDKKQWINKAVGDKLPECEADDGCPKPPEIAHGYVEHSVRYQCKNYYKLRTEGDGVYTLNNEKQWINKAVGDKLPECEAVCGKPKNPANPVQ
chain 2: ILGGHLDAKGSFPWQAKMVSHHNLTTGATLINEQWLLTTAKNLFLNHSENATAKDIAPTLTLYVGKKQLVEIEKVVLHPNYSQVDIGLIKLKQKVSVNERVMPICLPSKDYAEVGRVGYVSGWGRNANFKFTDHLKYVMLPVADQDQCIRHYEGSTVPEKKTPKSPVGVQPILNEHTFCAGMSKYQEDTCYGDAGSAFAVHDLEEDTWYATGILSFDKSCAVAEYGVYVKVTSIQDWVQKTIAEN
modifications: ApoE2 isoform, lecithin liposome-associated
As to B2, the Kd in experiment [2] is 0.0582 µM.

B3: Haptoglobin (phenotype 1-1) (protein)
chain 1: VDSGNDVTDIADDGCPKPPEIAHGYVEHSVRYQCKNYYKLRTEGDGVYTLNDKKQWINKAVGDKLPECEADDGCPKPPEIAHGYVEHSVRYQCKNYYKLRTEGDGVYTLNNEKQWINKAVGDKLPECEAVCGKPKNPANPVQ
chain 2: ILGGHLDAKGSFPWQAKMVSHHNLTTGATLINEQWLLTTAKNLFLNHSENATAKDIAPTLTLYVGKKQLVEIEKVVLHPNYSQVDIGLIKLKQKVSVNERVMPICLPSKDYAEVGRVGYVSGWGRNANFKFTDHLKYVMLPVADQDQCIRHYEGSTVPEKKTPKSPVGVQPILNEHTFCAGMSKYQEDTCYGDAGSAFAVHDLEEDTWYATGILSFDKSCAVAEYGVYVKVTSIQDWVQKTIAEN
modifications: ApoE4 isoform, lecithin liposome-associated
As for B3, in experiment [3], the Kd turned out to be 0.0549 µM. This counts as double-digit nanomolar.
